In US20030070184A1, “LIGANDS FOR DISCOIDIN DOMAIN RECEPTOR TYROSINE KINASES AND COMPLEXES THEREOF” (priority 1999, published 2003):

Tested on: DDR receptors
Test: Effect of other agents on DDR activity / collagen-induced DDR tyrosine phosphorylation
Format: cell-based
Settings: collagen-associated molecules

effect on DDR activity: no effect
B1: decorin: collagen-associated molecule (protein, UniProt P07585 31-359, looked up)
Decorin: DEASGIGPEVPDDRDFEPSLGPVCPFRCQCHLRVVQCSDLGLDKVPKDLPPDTTLLDLQNNKITEIKDGDFKNLKNLHALILVNNKISKVSPGAFTPLVKLERLYLSKNQLKELPEKMPKTLQELRAHENEITKVRKVTFNGLNQMIVIELGTNPLKSSGIENGAFQGMKKLSYIRIADTNITSIPQGLPPSLTELHLDGNKISRVDAASLKGLNNLAKLGLSFNSISAVDNGSLANTPHLRELHLDNNKLTRVPGGLAEHKYIQVVYLHNNNISVVGSSDFCPPGHNTKKASYSGVSLFSNPVQYWEIQPSTFRCVYVRSAIQLGNYK
